Drawing on patent publication US20120309692A1, this text covers hK2 Activity (%) of inhibitor-free control, inhibitor for four substances.

This experiment deals with recombinant human glandular kallikrein 2 (hK2) (human) (UniProt P20151). The experiment can be described thus: cell-based or functional assay.

Sequence of SLPI (P03973 26-132 limits assumed): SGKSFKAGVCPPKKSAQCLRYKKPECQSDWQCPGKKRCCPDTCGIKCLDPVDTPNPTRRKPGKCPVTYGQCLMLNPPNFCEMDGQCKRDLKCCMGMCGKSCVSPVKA

Regarding antipain (peptide), the hK2 Activity (%) of inhibitor-free control, inhibitor at 100 µM is 33% and the hK2 Activity (%) of inhibitor-free control, inhibitor at 500 µM stood at 10%.
For leupeptin (peptide), the hK2 Activity (%) of inhibitor-free control, inhibitor at 100 µM worked out at 12%.
In the case of PPACK (peptide), the hK2 Activity (%) of inhibitor-free control, inhibitor at 5 µM worked out at 0%.
For SLPI (from UniProt P03973 26-132), the hK2 Activity (%) of inhibitor-free control, inhibitor at 0.08 µM turned out to be 92% and the hK2 Activity (%) of inhibitor-free control, inhibitor at 4 µM came to 35%.
